These results are taken from IntAct's records for PubMed 18769030.

The labels stand for the following.
B1: Solute carrier family 12 member 5 (Rattus norvegicus (Rat)), Q63633 (parent)
chain: MSRRFTVTSLPPAASAASADPESRRHSVADPRRLPREDVKGDGNPKESSPFINSTDTEKGREYDGRNMALFEEEMDTSPMVSSLLSGLANYTNLPQGSKEHEEAENNEGGKKKPVQAPRMGTFMGVYLPCLQNIFGVILFLRLTWVVGIAGIMESFCMVFICCSCTMLTAISMSAIATNGVVPAGGSYYMISRSLGPEFGGAVGLCFYLGTTFAGAMYILGTIEILLAYLFPAMAIFKAEDASGEAAAMLNNMRVYGTCVLTCMATVVFVGVKYVNKFALVFLGCVILSILAIYAGVIKSAFDPPNFPICLLGNRTLSRHGFDVCAKLAWEGNETVTTRLWGLFCSSRLLNATCDEYFTRNNVTEIQGIPGAASGLIKENLWSSYLTKGVIVERRGMPSVGLADGTPVDMDHPYVFSDMTSYFTLLVGIYFPSVTGIMAGSNRSGDLRDAQKSIPTGTILAIATTSAVYISSVVLFGACIEGVVLRDKFGEAVNGNLVVGTLAWPSPWVIVIGSFFSTCGAGLQSLTGAPRLLQAISRDGIVPFLQVFGHGKANGEPTWALLLTACICEIGILIASLDEVAPILSMFFLMCYMFVNLACAVQTLLRTPNWRPRFRYYHWTLSFLGMSLCLALMFICSWYYALVAMLIAGLIYKYIEYRGAEKEWGDGIRGLSLSAARYALLRLEEGPPHTKNWRPQLLVLVRVDQDQNVVHPQLLSLTSQLKAGKGLTIVGSVLEGTFLDNHPQAQRAEESIRRLMEAEKVKGFCQVVISSNLRDGVSHLIQSGGLGGLQHNTVLVGWPRNWRQKEDHQTWRNFIELVRETTAGHLALLVTKNVSMFPGNPERFSEGSIDVWWIVHDGGMLMLLPFLLRHHKVWRKCKMRIFTVAQMDDNSIQMKKDLTTFLYHLRITAEVEVVEMHESDISAYTYEKTLVMEQRSQILKQMHLTKNEREREIQSITDESRGSIRRKNPANTRLRLNVPEETACDNEEKPEEEVQLIHDQSAPSCPSSSPSPGEEPEGEGETDPEKVHLTWTKDKSAAQKNKGPSPVSSEGIKDFFSMKPEWENLNQSNVRRMHTAVRLNEVIVNKSRDAKLVLLNMPGPPRNRNGDENYMEFLEVLTEQLDRVMLVRGGGREVITIYS

One test covers variants of B1. Particulars: with mycb2_mouse Mycbp2, Q7TPH6.
mycb2_mouse Mycbp2, Q7TPH6, sequence (Q7TPH6 whole entry): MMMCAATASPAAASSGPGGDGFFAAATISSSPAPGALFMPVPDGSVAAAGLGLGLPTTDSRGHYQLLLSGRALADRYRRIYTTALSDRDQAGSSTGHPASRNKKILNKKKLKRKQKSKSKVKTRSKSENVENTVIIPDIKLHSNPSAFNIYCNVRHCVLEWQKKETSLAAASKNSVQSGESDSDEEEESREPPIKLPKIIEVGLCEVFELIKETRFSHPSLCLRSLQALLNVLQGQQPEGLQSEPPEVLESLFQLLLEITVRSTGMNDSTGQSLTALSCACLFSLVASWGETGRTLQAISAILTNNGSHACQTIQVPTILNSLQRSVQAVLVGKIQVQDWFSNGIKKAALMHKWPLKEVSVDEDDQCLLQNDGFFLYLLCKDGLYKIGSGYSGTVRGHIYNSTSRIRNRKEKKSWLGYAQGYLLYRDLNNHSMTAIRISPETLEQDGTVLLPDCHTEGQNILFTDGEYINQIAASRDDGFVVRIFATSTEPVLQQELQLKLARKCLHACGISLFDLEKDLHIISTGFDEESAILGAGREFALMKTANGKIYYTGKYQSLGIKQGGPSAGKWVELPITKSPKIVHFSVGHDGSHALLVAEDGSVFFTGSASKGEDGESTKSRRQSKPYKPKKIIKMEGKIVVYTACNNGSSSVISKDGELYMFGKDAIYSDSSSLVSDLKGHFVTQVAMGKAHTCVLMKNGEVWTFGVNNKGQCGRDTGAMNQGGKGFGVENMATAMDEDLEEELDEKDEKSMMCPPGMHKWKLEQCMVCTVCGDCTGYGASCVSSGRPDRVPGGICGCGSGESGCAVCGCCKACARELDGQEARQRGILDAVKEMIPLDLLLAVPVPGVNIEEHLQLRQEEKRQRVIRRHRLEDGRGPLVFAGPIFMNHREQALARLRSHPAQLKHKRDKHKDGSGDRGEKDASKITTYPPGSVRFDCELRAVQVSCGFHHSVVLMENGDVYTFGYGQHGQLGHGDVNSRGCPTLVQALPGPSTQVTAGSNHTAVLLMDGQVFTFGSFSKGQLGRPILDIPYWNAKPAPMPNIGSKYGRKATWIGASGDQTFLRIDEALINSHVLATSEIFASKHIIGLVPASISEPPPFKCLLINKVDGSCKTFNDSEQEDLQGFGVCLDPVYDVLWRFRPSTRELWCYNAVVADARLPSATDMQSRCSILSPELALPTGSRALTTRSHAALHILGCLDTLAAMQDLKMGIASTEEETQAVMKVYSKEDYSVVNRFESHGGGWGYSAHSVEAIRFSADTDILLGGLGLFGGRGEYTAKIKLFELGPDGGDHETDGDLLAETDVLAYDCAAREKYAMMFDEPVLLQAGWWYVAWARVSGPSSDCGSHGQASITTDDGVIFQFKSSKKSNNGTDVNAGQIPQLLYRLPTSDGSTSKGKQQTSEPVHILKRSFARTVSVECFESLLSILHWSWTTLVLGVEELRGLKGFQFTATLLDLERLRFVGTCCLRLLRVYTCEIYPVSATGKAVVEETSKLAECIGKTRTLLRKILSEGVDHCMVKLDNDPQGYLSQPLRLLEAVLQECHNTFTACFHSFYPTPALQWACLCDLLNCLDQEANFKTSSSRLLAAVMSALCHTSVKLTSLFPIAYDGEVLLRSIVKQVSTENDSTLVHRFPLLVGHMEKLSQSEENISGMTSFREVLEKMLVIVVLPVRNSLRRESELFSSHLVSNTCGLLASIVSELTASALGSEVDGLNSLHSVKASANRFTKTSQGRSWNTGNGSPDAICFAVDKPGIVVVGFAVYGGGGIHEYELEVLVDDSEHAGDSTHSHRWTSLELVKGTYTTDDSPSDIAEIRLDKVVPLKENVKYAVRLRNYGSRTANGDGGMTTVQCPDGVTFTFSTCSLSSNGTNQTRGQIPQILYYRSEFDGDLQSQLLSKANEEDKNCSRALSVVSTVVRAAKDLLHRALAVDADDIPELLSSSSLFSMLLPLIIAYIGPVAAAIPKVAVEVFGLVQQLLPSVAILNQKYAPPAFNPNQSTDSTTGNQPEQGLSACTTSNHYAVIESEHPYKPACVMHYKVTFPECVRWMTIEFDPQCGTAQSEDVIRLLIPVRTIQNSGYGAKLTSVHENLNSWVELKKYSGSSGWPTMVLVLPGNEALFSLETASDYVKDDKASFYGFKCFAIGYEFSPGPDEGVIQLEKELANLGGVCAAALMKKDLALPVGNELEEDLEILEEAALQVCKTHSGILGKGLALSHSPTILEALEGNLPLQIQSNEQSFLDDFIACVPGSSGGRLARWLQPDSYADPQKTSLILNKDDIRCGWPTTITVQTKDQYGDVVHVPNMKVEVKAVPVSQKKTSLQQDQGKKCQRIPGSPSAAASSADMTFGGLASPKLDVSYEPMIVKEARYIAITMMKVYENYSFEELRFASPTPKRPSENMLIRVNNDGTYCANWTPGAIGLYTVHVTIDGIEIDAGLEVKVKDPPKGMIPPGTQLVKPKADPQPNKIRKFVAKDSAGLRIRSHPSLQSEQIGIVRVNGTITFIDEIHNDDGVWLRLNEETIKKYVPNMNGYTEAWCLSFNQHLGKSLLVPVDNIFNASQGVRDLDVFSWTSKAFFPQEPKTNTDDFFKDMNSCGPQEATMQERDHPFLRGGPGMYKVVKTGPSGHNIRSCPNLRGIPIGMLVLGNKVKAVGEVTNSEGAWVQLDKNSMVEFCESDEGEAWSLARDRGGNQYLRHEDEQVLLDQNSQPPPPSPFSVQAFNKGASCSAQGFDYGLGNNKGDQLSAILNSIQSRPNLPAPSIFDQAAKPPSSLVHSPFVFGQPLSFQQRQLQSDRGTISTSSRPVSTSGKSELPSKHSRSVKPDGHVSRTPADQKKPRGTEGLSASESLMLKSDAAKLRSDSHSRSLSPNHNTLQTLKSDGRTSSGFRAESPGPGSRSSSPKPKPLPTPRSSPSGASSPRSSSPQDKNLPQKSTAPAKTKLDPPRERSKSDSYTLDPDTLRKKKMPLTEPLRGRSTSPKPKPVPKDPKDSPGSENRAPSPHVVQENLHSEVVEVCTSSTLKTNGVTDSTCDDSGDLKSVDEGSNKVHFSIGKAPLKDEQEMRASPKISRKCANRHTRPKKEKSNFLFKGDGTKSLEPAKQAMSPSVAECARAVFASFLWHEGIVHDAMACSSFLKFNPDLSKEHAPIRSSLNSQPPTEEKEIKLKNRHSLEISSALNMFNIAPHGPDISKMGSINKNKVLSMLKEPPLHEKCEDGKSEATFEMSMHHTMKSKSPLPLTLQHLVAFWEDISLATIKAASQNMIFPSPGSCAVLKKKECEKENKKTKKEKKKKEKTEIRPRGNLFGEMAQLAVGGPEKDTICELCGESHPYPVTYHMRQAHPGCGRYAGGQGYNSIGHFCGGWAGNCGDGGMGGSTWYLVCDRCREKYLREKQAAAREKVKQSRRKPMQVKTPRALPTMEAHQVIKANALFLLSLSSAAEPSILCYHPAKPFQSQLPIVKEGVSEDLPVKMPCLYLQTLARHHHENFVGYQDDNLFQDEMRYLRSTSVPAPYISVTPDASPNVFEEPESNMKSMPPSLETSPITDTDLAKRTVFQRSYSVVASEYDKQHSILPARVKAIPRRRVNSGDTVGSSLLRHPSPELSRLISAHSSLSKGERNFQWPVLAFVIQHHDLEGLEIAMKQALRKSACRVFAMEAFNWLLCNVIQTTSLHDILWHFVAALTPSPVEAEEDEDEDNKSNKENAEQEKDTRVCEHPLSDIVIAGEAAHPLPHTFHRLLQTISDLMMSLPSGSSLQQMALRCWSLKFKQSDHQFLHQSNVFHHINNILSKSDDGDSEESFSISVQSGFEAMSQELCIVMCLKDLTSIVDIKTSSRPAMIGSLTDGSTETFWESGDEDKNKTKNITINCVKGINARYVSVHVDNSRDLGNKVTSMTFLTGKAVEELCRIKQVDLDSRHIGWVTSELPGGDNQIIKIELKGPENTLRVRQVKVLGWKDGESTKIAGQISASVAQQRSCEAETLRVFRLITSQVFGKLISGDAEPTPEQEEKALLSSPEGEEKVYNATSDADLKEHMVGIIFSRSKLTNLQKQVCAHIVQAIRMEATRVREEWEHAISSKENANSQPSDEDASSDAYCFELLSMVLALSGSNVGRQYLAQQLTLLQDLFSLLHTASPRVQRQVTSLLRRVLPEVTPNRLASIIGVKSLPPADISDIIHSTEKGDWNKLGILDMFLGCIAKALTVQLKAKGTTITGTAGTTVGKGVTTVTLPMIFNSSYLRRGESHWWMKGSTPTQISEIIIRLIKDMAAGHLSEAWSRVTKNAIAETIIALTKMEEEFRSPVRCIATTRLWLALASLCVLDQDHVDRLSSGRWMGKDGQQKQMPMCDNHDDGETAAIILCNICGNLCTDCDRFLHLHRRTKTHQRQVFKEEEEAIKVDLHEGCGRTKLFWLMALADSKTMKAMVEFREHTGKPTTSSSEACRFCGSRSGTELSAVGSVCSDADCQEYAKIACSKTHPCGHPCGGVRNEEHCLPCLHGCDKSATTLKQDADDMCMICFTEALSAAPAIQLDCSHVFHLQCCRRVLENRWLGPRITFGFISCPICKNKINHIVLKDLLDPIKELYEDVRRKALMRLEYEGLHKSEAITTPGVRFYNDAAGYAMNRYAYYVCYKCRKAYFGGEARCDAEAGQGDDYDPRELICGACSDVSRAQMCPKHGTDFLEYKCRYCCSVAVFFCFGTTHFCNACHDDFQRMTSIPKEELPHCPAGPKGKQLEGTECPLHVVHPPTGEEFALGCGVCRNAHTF
As for N1105E, the “effect of a mutation on the interaction” value was “disrupting interaction”.

As to R1104A, the “effect of a mutation on the interaction” value is reported as “disrupting interaction”.

Variants of B1 are the subject of another test. Particulars: with mycb2_mouse Mycbp2, Q7TPH6. The source holds these as a separate data set.
For the variant R1104A, the “effect of a mutation on the interaction” value is reported as “decreasing interaction”.
